The values that follow are results of earlier work, collected in publication PMC10564622.

As usually defined, the Kd is the constant that tells how readily two partners part at equilibrium.

Data set [1] concerns the target CUL3 NTD with N-terminal deletion (Homo sapiens) (UniProt Q13618).
Data set [2] concerns the target CUL3 NTD (Homo sapiens) (UniProt Q13618).
For data set [3] the target is unchanged. This is another data set of the same source.

Where two headings read alike, the source gives them in different places.

CUL3 NTD (Homo sapiens), sequence (Q13618 20-381): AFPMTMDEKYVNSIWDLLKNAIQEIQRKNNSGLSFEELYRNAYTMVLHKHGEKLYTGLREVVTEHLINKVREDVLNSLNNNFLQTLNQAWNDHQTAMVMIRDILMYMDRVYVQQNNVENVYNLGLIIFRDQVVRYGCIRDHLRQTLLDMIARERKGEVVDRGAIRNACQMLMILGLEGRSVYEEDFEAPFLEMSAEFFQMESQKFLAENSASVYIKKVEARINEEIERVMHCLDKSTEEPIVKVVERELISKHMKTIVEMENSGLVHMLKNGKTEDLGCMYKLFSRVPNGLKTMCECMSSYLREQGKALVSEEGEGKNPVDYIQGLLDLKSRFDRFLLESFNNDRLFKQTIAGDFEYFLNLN
KLHL3 BTB-BACK, sequence (Q9UH77 24-276): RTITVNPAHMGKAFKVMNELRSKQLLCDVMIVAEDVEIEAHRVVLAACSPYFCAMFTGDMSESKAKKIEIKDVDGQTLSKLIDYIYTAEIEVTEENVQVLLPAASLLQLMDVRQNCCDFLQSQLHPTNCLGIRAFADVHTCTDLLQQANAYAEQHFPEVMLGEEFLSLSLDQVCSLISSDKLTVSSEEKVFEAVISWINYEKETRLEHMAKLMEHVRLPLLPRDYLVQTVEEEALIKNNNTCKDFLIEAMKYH
SPOP BTB-3-box, sequence (O43791 177-319): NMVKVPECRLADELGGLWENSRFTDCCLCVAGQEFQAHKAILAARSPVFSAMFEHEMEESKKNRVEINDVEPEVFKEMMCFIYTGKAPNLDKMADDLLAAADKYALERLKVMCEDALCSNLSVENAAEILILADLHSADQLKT
CUL3 NTD with N-terminal deletion (Homo sapiens), sequence (Q13618 20-381, stated change not applied): as the sequence (Q13618 20-381) above
SPOP BTB, sequence (O43791 170-300): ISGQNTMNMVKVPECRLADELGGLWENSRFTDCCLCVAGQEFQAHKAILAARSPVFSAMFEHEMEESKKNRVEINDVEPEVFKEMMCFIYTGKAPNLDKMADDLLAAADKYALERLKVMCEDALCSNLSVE

For KLHL3 BTB-BACK (from UniProt Q9UH77), in data set [1], the Kd is 110 nM. For the substance SPOP BTB (from UniProt O43791), the Kd with CUL3 NTD (Homo sapiens) [2] was 1000 nM.

With SPOP BTB-3-box (from UniProt O43791), the Kd with CUL3 NTD (Homo sapiens) [3] is 17 nM.
